Laboratory results: publication PMC5490264 (Nature Communications, 2017)

B1: YscL (natural protein)
chain: MSQTCQTGYAYMQPFVQIIPSNLSLACGLRILRAEDYQSSLTTEELISAAKQDAEKILADAQEVYEQQKQLGWQAGMDEARTLQATLIHETQLQCQQFYRHVEQQMSEVVLLAVRKILNDYDQVDMTLQVVREALALVSNQKQVVVRVNPDQAGTIREQIAKVHKDFPEISYLEVTADARLDQGGCILETEVGIIDASIDGQIEALSRAISTTLGQMKVTEEE
notes: YscL (SctL), negative regulator of the T3SS ATPase, Yersinia enterocolitica; untagged; also called SctL/YscL; negative regulator of the ATPase; source: endogenous, Y. enterocolitica lysate (strain expressing Halo-YscQ)
B2: Halo-YscQ (natural protein)
chain: MSLLTLPQAKLSELSLRQRLSHYRQNYLWEEGKLELTVSEPPSSLNCILQLQWKGTHFTLYCFGDDLANWLTPDLLGAPFSTLPKELQLALLERQTVFLPKLVCNDIATASLSVTQPLLSLRLSRDNAHISFWLTSAEALFALLPARPNSERIPLPILLSLRWHKVYLTLDEVDSLRLGDVLLAPEGSGPNSPVLAYVGENPWGYFQLQSNKLEFIGMSHESDELNPKPLTDLNQLPVQVSFEVGRQILDWHTLTSLEPGSLIDLTTPVDGEVRLLANGRLLGHGRLVEIQGRLGVRIERLTEVTIS
notes: also called Halo-tagged YscQ; SctQ/YscQ
B3: YscN (enzyme)
chain: MLSLDQIPHHIRHGIVGSRLIQIRGRVTQVTGTLLKAVVPGVRIGELCYLRNPDNSLSLQAEVIGFAQHQALLIPLGEMYGISSNTEVSPTGTMHQVGVGEHLLGQVLDGLGQPFDGGHLPEPAAWYPVYQDAPAPMSRKLITTPLSLGIRVIDGLLTCGEGQRMGIFAAAGGGKSTLLASLIRSAEVDVTVLALIGERGREVREFIESDLGEEGLRKAVLVVATSDRPSMERAKAGFVATSIAEYFRDQGKRVLLLMDSVTRFARAQREIGLAAGEPPTRRGYPPSVFAALPRLMERAGQSSKGSITALYTVLVEGDDMTEPVADETRSILDGHIILSRKLAAANHYPAIDVLRSASRVMNQIVSKEHKTWAGDLRRLLAKYEEVELLLQIGEYQKGQDKEADQAIERIGAIRGWLCQGTHELSHFNETLNLLETLTQ
notes: YscN (SctN), type III secretion ATPase, Yersinia enterocolitica; also called SctN/YscN; T3SS ATPase; source: endogenous, Y. enterocolitica lysate (pYV virulence plasmid)

Experiments:
Halo-YscQ = molecular target: B2; assay: affinity purification with mass spectrometry; as a1, but strains lacking YscD (ΔyscD; all soluble components diffuse in the cytosol); amounts normalized to the WT strain; one representative quantitative mass spectrometry experiment; settings: partners not purified
[1] = molecular target: the molecule itself; assay: as above

| Binder | degree of interaction in the ΔyscD strain relative to the WT strain (Halo-YscQ) [%] | degree of interaction in the ΔyscD strain relative to the WT strain [1] [%] |
| --- | --- | --- |
| B1 | ~50 |  |
| B2 |  | ~50 |
| B3 | ~20 |  |
